These results are taken from article PMC12985673.

Where “and” joins values, the source holds several entries; their conditions need not be identical. Equal values may be shown once. Read-outs that look alike come from different tables or passages of the source.

In assay [1] the target is Neurexin β1 (UniProt P58400). To be noted: cited from earlier work.
For assay [2], the target named is NRXβ1 ECD (amino acids 81 to 311), His-tagged, labelled with Alexa Fluor 488 (mouse) (UniProt P0DI97). Kind of assay: fluorescence polarisation; 8 nM NRXβ1 ECD–AF488, NL2 or NL2mut titrated 15 nM to 8 μM; 20 mM Hepes pH 7.5, 150 mM NaCl, 1 mM MgCl2, 0.5 mM CaCl2; triplicate; Hill fit with shared slope; apparent. On the technique in general: In fluorescence polarisation assays a small probe gives low polarisation when free and higher when bound to something large.

The target in assay [3] is Neurexin β1 ECD (UniProt P58400). The settings on record: cited from earlier work.
Chain of Neurexin β1 ECD (P58400 51-396): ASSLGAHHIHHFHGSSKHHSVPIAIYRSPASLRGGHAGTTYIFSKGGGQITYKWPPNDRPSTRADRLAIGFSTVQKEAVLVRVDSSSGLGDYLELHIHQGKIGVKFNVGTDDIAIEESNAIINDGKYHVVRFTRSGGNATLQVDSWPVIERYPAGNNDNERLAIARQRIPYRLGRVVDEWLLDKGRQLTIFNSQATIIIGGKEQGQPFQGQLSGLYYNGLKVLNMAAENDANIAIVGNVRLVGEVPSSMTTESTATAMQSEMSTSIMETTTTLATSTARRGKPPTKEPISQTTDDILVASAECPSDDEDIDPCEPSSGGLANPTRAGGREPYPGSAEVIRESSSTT
Assay [4] has as its target full-length neuroligin 2 (NL2), mouse, without the splice insert at site A (mouse) (UniProt Q69ZK9). Kind of assay: proteoliposome colocalisation (TIRF microscopy); as a5 at 2x protein: NL2 1:5 and NRXβ1 1:10 protein:lipid (w/w); all detections.
For assay [5] the target is unchanged. Description: cryo-EM structure; NL2 and NRXβ1 purified separately, mixed at one-to-one molar ratio, ~20 μM (monomer) each, on ice 10 min; only the ECDs resolved; Ca2+ at the interface.
For assay [6] the target is unchanged. Description: proteoliposome colocalisation (TIRF microscopy); as a5 at 2x protein: NL2 1:5 and NRXβ1 1:10 protein:lipid (w/w); all detections. This is another data set of the same source.
The target in assay [7] is Neurexin β1 ECD (UniProt P58400). To be noted: cited from earlier work. The source holds these as a separate data set.
Assay [8] addresses Neurexin β1 (UniProt P58400). The settings on record: cited from earlier work. This is another data set of the same source.

Chain of full-length neuroligin 2 (NL2), mouse, without the splice insert at site A (mouse) (Q69ZK9 other isoform, or with tags, fused parts or gaps): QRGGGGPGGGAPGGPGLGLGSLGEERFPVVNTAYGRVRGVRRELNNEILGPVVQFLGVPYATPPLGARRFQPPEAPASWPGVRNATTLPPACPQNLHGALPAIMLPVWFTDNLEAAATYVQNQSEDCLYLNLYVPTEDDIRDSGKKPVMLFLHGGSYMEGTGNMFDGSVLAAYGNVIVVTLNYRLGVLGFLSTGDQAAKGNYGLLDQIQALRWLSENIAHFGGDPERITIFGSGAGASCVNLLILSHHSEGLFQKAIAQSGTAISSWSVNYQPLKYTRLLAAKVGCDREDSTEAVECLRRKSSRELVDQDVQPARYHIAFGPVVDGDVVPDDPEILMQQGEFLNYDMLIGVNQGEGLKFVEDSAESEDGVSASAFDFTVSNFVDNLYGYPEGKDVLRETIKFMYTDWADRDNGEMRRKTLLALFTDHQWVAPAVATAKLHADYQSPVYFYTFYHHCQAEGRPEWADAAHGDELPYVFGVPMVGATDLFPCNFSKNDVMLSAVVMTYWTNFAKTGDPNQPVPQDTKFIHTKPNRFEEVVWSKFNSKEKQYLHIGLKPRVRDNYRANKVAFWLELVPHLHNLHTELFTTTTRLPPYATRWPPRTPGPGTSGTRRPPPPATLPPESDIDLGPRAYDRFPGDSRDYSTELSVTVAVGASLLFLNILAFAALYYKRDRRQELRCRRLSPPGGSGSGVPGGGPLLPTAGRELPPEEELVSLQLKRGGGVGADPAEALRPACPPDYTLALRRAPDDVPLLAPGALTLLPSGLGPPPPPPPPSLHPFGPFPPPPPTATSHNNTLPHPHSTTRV
Chain of Neurexin β1 (P58400 51-396): as the sequence (P58400 51-396) above
Chain of Neuroligin 1 ECD (Q8N2Q7 46-717): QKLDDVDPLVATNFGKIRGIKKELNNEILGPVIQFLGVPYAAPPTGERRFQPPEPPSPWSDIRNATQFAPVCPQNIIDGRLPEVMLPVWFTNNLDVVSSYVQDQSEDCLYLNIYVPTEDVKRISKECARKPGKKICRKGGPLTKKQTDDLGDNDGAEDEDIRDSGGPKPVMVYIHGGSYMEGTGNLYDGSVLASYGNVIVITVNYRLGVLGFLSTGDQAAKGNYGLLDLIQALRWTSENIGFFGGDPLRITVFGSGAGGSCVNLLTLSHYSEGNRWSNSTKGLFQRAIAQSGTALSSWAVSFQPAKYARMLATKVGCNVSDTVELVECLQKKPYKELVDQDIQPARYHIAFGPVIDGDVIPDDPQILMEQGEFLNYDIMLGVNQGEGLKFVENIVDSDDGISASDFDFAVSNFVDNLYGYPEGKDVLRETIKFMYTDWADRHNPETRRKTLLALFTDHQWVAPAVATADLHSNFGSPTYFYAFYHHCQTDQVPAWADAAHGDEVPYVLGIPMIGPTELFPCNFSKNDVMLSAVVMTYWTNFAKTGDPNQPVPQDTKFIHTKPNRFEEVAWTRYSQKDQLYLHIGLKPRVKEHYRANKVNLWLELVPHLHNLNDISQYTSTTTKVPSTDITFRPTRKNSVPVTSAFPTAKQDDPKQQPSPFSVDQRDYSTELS
Chain of Neuroligin 3 (Q9NZ94 38-709): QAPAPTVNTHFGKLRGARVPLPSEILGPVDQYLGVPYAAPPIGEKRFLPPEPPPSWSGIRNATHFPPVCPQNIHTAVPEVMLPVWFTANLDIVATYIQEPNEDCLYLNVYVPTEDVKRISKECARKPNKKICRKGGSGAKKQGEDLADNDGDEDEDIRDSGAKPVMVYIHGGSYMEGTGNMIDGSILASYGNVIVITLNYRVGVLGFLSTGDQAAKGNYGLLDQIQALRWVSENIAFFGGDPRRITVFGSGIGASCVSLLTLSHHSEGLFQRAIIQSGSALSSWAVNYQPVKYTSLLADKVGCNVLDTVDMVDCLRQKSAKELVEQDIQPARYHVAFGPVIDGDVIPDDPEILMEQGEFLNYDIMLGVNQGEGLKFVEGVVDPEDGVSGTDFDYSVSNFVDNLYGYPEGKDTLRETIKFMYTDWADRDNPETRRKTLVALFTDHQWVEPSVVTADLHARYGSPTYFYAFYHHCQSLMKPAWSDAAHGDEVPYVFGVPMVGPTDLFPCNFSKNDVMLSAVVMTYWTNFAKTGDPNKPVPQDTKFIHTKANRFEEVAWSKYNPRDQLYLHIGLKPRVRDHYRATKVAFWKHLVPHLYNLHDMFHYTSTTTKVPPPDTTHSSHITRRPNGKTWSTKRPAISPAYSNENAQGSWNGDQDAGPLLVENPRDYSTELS
Chain of full-length neuroligin 2 (NL2), mouse, without the splice insert at site A (Q69ZK9 other isoform, or with tags, fused parts or gaps): as the sequence (Q69ZK9 other isoform, or with tags, fused parts or gaps) above
Chain of Neuroligin 2 (Q8NFZ4 15-677): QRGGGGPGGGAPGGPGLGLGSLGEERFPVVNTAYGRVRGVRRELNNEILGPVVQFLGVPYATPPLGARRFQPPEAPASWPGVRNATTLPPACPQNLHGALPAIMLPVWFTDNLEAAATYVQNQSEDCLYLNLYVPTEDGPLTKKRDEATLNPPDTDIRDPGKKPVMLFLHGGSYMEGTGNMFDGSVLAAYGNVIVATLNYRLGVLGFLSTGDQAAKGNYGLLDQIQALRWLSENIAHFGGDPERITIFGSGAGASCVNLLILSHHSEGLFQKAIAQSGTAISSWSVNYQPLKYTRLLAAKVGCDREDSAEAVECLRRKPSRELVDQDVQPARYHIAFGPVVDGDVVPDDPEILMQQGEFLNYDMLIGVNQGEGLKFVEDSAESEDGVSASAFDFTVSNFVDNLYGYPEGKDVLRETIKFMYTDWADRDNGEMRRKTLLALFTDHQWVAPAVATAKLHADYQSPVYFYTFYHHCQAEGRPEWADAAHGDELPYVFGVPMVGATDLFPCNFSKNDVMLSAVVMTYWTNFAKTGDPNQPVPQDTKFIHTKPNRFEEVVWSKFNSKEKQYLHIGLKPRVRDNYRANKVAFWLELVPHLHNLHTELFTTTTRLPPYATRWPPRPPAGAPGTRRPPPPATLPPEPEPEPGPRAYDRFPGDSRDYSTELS

Take Neuroligin 2 (from UniProt Q8NFZ4): the Kd in the assay with Neurexin β1 [1] is 10 µM.
With “NL2 H279Y G282K mutant (from UniProt Q69ZK9 170-836) (receptor)”, the fold increase of affinity against wild-type NL2 in assay [2] worked out at 30 fold.
As for “full-length neuroligin 2 (NL2), mouse, without the splice insert at site A (from UniProt Q69ZK9 15-836) (receptor)”, the Kd in assay [2] came out at 6 µM.
In the case of Neuroligin 4 ECD (from UniProt Q8N0W4), the Kd with Neurexin β1 ECD [3] is 0.1 µM.
Turning to “full-length neurexin β1 (NRXβ1), mouse, without the insert at splice site 4 (from UniProt P0DI97 47-468) (receptor)”, the fraction of vesicles colocalised in assay [4] was more than 0.5; in assay [6], 0.6. The stoichiometry N (NRXβ1 per NL2 dimer) in assay [5] is 2 and 1.
As to Neuroligin 1 ECD (from UniProt Q8N2Q7), the Kd with Neurexin β1 ECD [7] is 0.01 µM.
As to Neuroligin 3 (from UniProt Q9NZ94), the Kd with Neurexin β1 [8] was 1 µM.
